Earlier results in paper PMC6953019.

Biological target: TβRII (Homo sapiens) (UniProt P37173)
Assay: SPR

Chain of TGFβ2 (P61812 303-414): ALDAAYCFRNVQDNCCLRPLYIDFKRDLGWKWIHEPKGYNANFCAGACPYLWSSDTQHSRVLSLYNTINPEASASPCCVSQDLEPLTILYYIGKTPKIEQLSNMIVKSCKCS
Chain of TβRII (Homo sapiens) (P37173 23-166): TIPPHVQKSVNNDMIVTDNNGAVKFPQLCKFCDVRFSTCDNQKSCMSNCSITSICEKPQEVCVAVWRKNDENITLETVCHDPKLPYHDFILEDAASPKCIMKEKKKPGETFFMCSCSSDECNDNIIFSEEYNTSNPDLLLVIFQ

Kd: 5 nM
Substance: TGFβ2 (from UniProt P61812)
